The record followed here is patent US20110064740A1 (GlaxoSmithKline, published 2011).

Ends that are not written are not given here. * marks the point of attachment. Biotin = O=C1N[C@H]2[C@H](CS[C@H]2CCCCC(=O)*)N1

The target of assay [1] is T1, Set (B) peptide encompassing amino acids 1-7 of the β-amyloid peptide, DAEFRHD--GSGGSGGSK-biotin.
T1 peptide: DAEFRHDGSGGSGGSK(Biotin)
As to the kind of experiment: SRU BIND biosensor, peptide set (B).

Assay [2] deals with T2, Set (B) peptide encompassing amino acids 1-5 of the β-amyloid peptide, DAEFR--GSGGSGGSGSK-biotin.
T2 peptide: DAEFRGSGGSGGSGSK(Biotin)
As to the kind of experiment: SRU BIND biosensor, peptide set (B).

Assay [3] addresses T3, Set (B) peptide encompassing amino acids 1-6 of the β-amyloid peptide, DAEFRH--GSGGSGGSGK-biotin.
T3 peptide: DAEFRHGSGGSGGSGK(Biotin)
The assay can be described thus: SRU BIND biosensor, peptide set (B).

For assay [4], the target named is T4, human Aβ peptide (1-40) biotinylated at the C terminus (human, UniProt P05067 672-711, biotinylated at the C-terminus).
T4 construct: domain: β-amyloid peptide (1-40); Numbers 1-40 count on the β-amyloid peptide, not on APP; also called beta-amyloid 1-40 peptide (biotinylated at the C-terminus); streptavidin-captured beta-amyloid (1-40)
T4 sequence (P05067 672-711 limits assumed): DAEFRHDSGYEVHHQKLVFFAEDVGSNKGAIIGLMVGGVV
The assay can be described thus: SPR Biacore 3000, Method A(i): C-terminally biotinylated β-amyloid 1-40 on streptavidin chip, antibody as analyte; Average(SD) of two runs. As for the experimental part:
(§1) (i) Briefly, <20 resonance units of beta-amyloid 1-40 peptide (biotinylated at the C-terminus) were captured on a streptavidin biosensor chip (as used for Table 10A). The antibodies were diluted down in HBS-EP buffer and passed over the streptavidin/beta-amyloid surface at concentrations ranging from 0.001 nM-8 nM (for Table 10A). Two separate runs were carried out; each run was carried out on a new streptavidin/beta-amyloid surface. Runs 1 and 2 were essentially the same though there were some differences in the parameters used; Run 1 was carried out using a chip surface on which 16 RU's of beta-amyloid were captured, and antibody concentrations of 0.001 nM-8 nM were used, an association time of 4 minutes and a dissociation time of 20 minutes were used at a flow rate of 50 μl per minute. For Run 2, less than 10 RU's of beta-amyloid were captured and antibody concentrations of 0.003125 nM-8 nM were used. The flow rate and association times were the same as Run 1, however the dissociation time was reduced to 15 minutes. (ii) Beta amyloid (1-40) and (1-42) were amine-coupled on different surfaces of a CM5 biosensor chip to a level of <20 resonance units (as used for Table 10B). The antibodies were diluted down in HBS-EP buffer and passed over the biosensor/beta-amyloid surface at concentrations ranging from 1 nM-64 nM (as used for Table 10B).
(§2) In both methods, regeneration was via a pulse of 100 mM H₃PO₄, and for Table 10A data also followed by a pulse of 50 mM NaOH. […] All runs were double referenced against buffer blank injections. Analysis was carried out using the Biacore™ analysis software BIAevaluation version 4.1.
In general terms: Surface plasmon resonance follows binding to a sensor surface in real time, without labels.

The target in assay [5] is T5, Peptide Aβ2-13, AEFRHDSGYEVHGSGK-biotin.
T5 construct: The range counts on the β-amyloid peptide; also called 2-13 peptide; β-amyloid peptide 2-13
T5 peptide: Ac-AEFRHDSGYEVHGSGK(Biotin)
The assay can be described thus: Biacore 3000, peptide on streptavidin chip. As for the experimental part: (§3) In addition to the experiments described above, the Biacore™ 3000 optical biosensor was used to monitor the binding of 2E7 antibody to selected β-amyloid sequence derived peptides. Binding was measured by injecting test antibodies at up to 64 nM for 5 minute over peptides captured on separate streptavidin chip surfaces (130-230 RU (resonance units)). A running buffer (HBS-EP) containing 0.01 M HEPES pH7.4, 0.15 M NaCl, 3 mM EDTA and 0.005% Surfactant P20™ at 25° C. was used at a flow rate of 20 ul/min. All runs were double referenced against a blank streptavidin surface and blank injections. Analysis was carried out using the Biacore™ analysis software BIAevaluation™ version 4.1.
In a separate experiment the β-amyloid 1-40 peptide was captured via its N-terminal aspartic acid residue that had been biotinylated. This peptide was captured onto a Biacore™ streptavidin coated chip as previously described. Antibody 2E7 injected at 66 nM for 1 minute could not bind this peptide. Therefore, it is concluded that the previously descibed N-terminal binding site was masked by the linker and capture method, thus further confirming the extreme N-terminus as containing the core binding site

The target in assay [6] is T4, human Aβ peptide (1-40) biotinylated at …. As to the kind of experiment: SPR Biacore 3000, Method A(i): C-terminally biotinylated β-amyloid 1-40 on streptavidin chip, antibody as analyte; Run 1. The method, then: as §1, §2
The target in assay [7] is T6, Peptide APP1, AcNH-SEVKMDAEFRHDGSGK-biotin.
T6 construct: also called APP derived peptide APP1
T6 peptide: Ac-SEVKMDAEFRHDGSGK(Biotin)
As to the kind of experiment: Biacore, peptide on streptavidin chip. The method, then:
as §3
(§4) In a study similar to the epitope mapping study on 2E7 using the Surface Plasmon Resonance assay described above, H2L1 behaved similarly to 2E7 in binding to the peptide encompassing amino acids 1-12 (Aβ1, SEQ ID No:15) of the β-amyloid peptide and not to the peptide encompassing amino acids 2-13 of the β-amyloid peptide (Aβ2-13, SEQ ID No:44).

Assay [8] has as its target T7, human beta-amyloid peptide (1-40) (human, UniProt P05067 672-711).
T7 construct: domain: beta-amyloid peptide (1-40); Unlabelled peptide: amine-coupled to a CM5 chip (Method A(ii)) or in solution as analyte (Method B); also called beta-amyloid (1-40)
The assay can be described thus: SPR Biacore 3000, Method A(ii): β-amyloid amine-coupled to CM5 chip, antibody 1-64 nM as analyte. As for the experimental part:
as §1, §2

Assay [9] addresses T8, human beta-amyloid peptide (1-42) (human, UniProt P05067 672-713).
T8 construct: domain: beta-amyloid peptide (1-42); Unlabelled peptide: amine-coupled to a CM5 chip (Method A(ii)) or in solution as analyte (Method B); also called beta-amyloid (1-42)
Described as above. The method, then:
as §1, §2

Assay [10] addresses T4, human Aβ peptide (1-40) biotinylated at …. As to the kind of experiment: SPR Biacore 3000, Method A(i): C-terminally biotinylated β-amyloid 1-40 on streptavidin chip, antibody as analyte; Run 2. The method, then:
as §1, §2

For assay [11], the target named is T7, human beta-amyloid peptide (1-40). The assay can be described thus: SPR Biacore 3000, Method B: antibody captured on anti-mouse IgG surface, β-amyloid 4-500 nM as analyte; n = 3; peptide length not given. The method, then: (§5) In the second instance the assay was reversed, in that antibodies were first captured to a level of 1000-2500 resonance units on an anti-mouse IgG polyclonal antibody surface (for recombinant mouse 2E7 MAb) or a protein A surface (for humanized H2L1) of a CM5 biosensor chip. Freshly prepared beta-amyloid (1-40) or (1-42) was diluted down in HBS-EP buffer and passed over the captured-antibody surface at concentrations ranging from 4-500 nM (Table 10C and 10D).
as §2

Assay [12] concerns the target T4, human Aβ peptide (1-40) biotinylated at …. The assay can be described thus: Aβ binding ELISA, human Aβ (1-40) biotinylated at the C terminus. On the technique in general: ELISA stands for enzyme-linked immunosorbent assay.
Assay [13] shares this target. As to the kind of experiment: competition ELISA, biotinylated human Aβ (1-40) on streptavidin plate; competitor: mouse 2E7 at constant concentration; Experiment 2. The method, then: (§6) Two types of competition ELISA were established in order to compare the Aβ binding activity of the three humanised variants compared to the 2E7 chimeric antibody. 1) Immobilised β-amyloid; biotinylated human Aβ peptide (1-40) was immobilized through Streptavidin on ELISA plates Mouse 2E7 antibody was added at a constant concentration along with a dilution series of 2E7-derived humanised variant antibodies. Bound mouse 2E7 MAb was then detected with anti-mouse IgG conjugate.

Assay [14] shares this target. The assay can be described thus: Aβ binding ELISA, human Aβ (1-40) biotinylated at the C terminus. This is another data set of the same source.
Assay [15] has as its target T9, human Aβ peptide (length not stated) (human, UniProt P05067 672-711).
T9 construct: also called β-amyloid in solution
As to the kind of experiment: competition ELISA, β-amyloid in solution pre-incubated with the antibody; competitor: immobilised mouse 2E7; Experiment 2. As for the experimental part:
(§7) 2) β-amyloid in solution; a constant concentration of β-amyloid was pre-incubated with a dilution series of humanised 2E7 antibody variants—the mixture including complexed and free amyloid was added for a short time to wells containing immobilised mouse 2E7 MAb. The amount of free β-amyloid that was still available for binding the immobilised parental 2E7 MAb was then detected.

The target of assay [16] is T4, human Aβ peptide (1-40) biotinylated at …. As to the kind of experiment: Aβ binding ELISA, human Aβ (1-40) biotinylated at the C terminus. The source holds these as a separate data set.
Assay [17] has as its target T5, Peptide Aβ2-13, AEFRHDSGYEVHGSGK-biotin. As to the kind of experiment: Biacore, peptide on streptavidin chip. As for the experimental part: as §3, §4
Assay [18] has as its target T4, human Aβ peptide (1-40) biotinylated at …. The assay can be described thus: competition ELISA, biotinylated human Aβ (1-40) on streptavidin plate; competitor: mouse 2E7 at constant concentration; Experiment 1. As for the experimental part:
as §6

The target in assay [19] is T9, human Aβ peptide (length not stated). As to the kind of experiment: competition ELISA, β-amyloid in solution pre-incubated with the antibody; competitor: immobilised mouse 2E7; Experiment 1. As for the experimental part:
as §7

Assay [20] deals with T7, human beta-amyloid peptide (1-40). As to the kind of experiment: SPR Biacore 3000, Method B: antibody captured on protein A surface, β-amyloid 4-500 nM as analyte; n = 3; peptide length not given. The method, then:
as §5, §2

Assay [21] has as its target T4, human Aβ peptide (1-40) biotinylated at …. As to the kind of experiment: Aβ binding ELISA with culture supernatant, Aβ peptide (1-40).

T7 sequence (P05067 672-711 limits assumed): as above
T8 sequence (P05067 672-713 limits assumed): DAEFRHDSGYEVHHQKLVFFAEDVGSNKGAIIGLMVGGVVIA
T9 sequence (P05067 672-711): as the sequence (P05067 672-711 limits assumed) above

B1: Mouse monoclonal antibody 2E7 (antibody, mouse IgG2a, V domains shown)
VH: EVKLVESGGGLVQPGGSLKLSCAVSGFTFSDNGMAWVRQAPRKGPEWIAFISNLAYSIDYADTVTGRFTISRDNAKNTLYLEMSSLRSEDTAMYYCVSGTWFAYWGQGTLVTVSA
VL: DVVLTQTPLSLPVSLGDQASISCRVSQSLLHSNGYTYLHWYLQKPGQSPKLLIYKVSNRFSGVPDRFSGSGSGTDFTLKISRVEAEDLGVYFCSQTRHVPYTFGGGTKLEIK
notes: Murine IgG2a heavy chain, murine kappa light chain; also called 2E7 MAb; parental mouse 2E7 MAb
A word on the Kd: it is the constant that tells how readily two partners part at equilibrium. Read a high Kd as weaker binding. As usually defined, the koff is the first-order rate constant of dissociation. Low values mean slow dissociation, high ones fast dissociation. Broadly, the kon is the second-order rate constant of association. Turning to B1, the binding result in [1] was “binds”; in assay [2], “binds”; in assay [3] it was “binds”; in [5] it was “no binding (tested: up to 64 nM)”; in [7], “no binding”. Besides, the Kd in assay [4] amounted to 0.0361 nM; in [6], 0.0383 nM; in [8], 0.317 nM; in [9] it was 0.394 nM; in [10] it was 0.0338 nM; in [11], 1.58 nM. Also, the koff is 0.000128 s⁻¹ in assay [8], 0.000151 s⁻¹ in [9] and 0.000428 s⁻¹ in assay [11]. For the same molecule, the kon in assay [8] is 405000 M⁻¹ s⁻¹; in [9] it was 382000 M⁻¹ s⁻¹; in assay [11], 283000 M⁻¹ s⁻¹.

B2: Humanised 2E7 variant H2L1 (antibody, human IgG1, kappa, V domains shown)
VH: EVQLVESGGGLVQPGGSLRLSCAVSGFTFSDNGMAWVRQAPGKGLEWVSFISNLAYSIDYADTVTGRFTISRDNAKNSLYLQMNSLRAEDTAVYYCVSGTWFAYWGQGTLVTVSS
VL: DIVMTQSPLSLPVTPGEPASISCRVSQSLLHSNGYTYLHWYLQKPGQSPQLLIYKVSNRFSGVPDRFSGSGSGTDFTLKISRVEAEDVGVYYCSQTRHVPYTFGGGTKVEIKR
notes: Human IgG1 with L235A and G237A, human kappa; also called L1+H2; H2L1 whole IgG
As usually defined, the EC50 is the midpoint of the concentration-response curve. In general, IC50 refers to the concentration at which inhibition is half-maximal. The low end stands for greater potency, the high end for weaker potency. Consider B2, for which the EC50 was determined as 0.041 µg/mL in assay [12], 0.044 µg/mL in [14], 0.048 µg/mL in assay [16] and 0.113 µg/mL in [21]. Besides, the IC50 in assay [13] was 1.66 µg/mL; in [15], 0.119 µg/mL; in assay [18], 1.28 µg/mL; in [19], 0.075 µg/mL. Besides, the Kd was found to be 0.054 nM in assay [4]; 0.0581 nM in assay [6]; 0.366 nM in assay [8]; 0.456 nM in assay [9]; 7.32 nM in assay [20]; 0.0498 nM in assay [10]. The binding result in assay [17] is “no binding”. For the same molecule, the koff in assay [8] was found to be 0.000122 s⁻¹; in assay [9], 0.000155 s⁻¹; in assay [20] it was 0.00075 s⁻¹. Besides, the kon in assay [8] was 333000 M⁻¹ s⁻¹; in [9] it was 340000 M⁻¹ s⁻¹; in assay [20], 106000 M⁻¹ s⁻¹.
